Experimental data reported in US20210309696A1 (ENLITISA SHANGHAI PHARMACEUTICAL, published 2021).
Non-standard residues stand in square brackets, D forms with d. No end group written: not given here. Hyp = O=C(O)[C@@H]1C[C@@H](O)CN1

T1: CysLTR1 (cysteinyl leukotriene receptor CysLT1), expressed in the CYSLTR1/HEK293 cell line (UniProt Q9Y271 1-337, limits assumed)
T1 sequence (looked up): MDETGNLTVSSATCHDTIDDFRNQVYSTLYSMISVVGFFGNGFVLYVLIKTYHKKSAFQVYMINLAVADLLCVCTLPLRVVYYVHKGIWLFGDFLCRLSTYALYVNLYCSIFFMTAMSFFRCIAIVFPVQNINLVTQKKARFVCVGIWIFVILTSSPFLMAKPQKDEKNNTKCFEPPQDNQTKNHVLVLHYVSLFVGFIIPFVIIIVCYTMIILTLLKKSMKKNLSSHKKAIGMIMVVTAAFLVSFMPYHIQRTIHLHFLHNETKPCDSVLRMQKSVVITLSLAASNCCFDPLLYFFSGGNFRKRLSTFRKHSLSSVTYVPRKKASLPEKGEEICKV

B1: Montelukast styrene-Ala-Lys-Pro-Ser-Tyr-Hyp-Hyp-Thr-Tyr-Lys (montelukast styrene covalently bonded to amino acid SEQ ID No: 12 at the N-terminus) (peptide)
peptide: {montelukast styrene}-AKPSY[Hyp][Hyp]TYK
B2: Montelukast-Ala-Lys-Pro-Ser-Tyr-Hyp-Hyp-Thr-Tyr-Lys (montelukast covalently bonded to amino acid SEQ ID No: 12 at the N-terminus) (peptide)
peptide: montelukast-AKPSY[Hyp][Hyp]TYK

Legend:
Test in all cases: cell-based or functional assay
[1] = target: CysLTR1 (cysteinyl leukotriene receptor CysLT1), expressed in the CYSLTR1/HEK293 cell line (UniProt Q9Y271)
[2] = target: T1, CysLTR1 (cysteinyl leukotriene receptor …)
[3] = target: T1, CysLTR1 (cysteinyl leukotriene receptor …); remark: listed apart in the source
[4] = target: T1, CysLTR1 (cysteinyl leukotriene receptor …); remark: listed apart in the source

Molecule | IC50 (nM), in vitro CysLTR1 FLIPR antagonist test (Fluo-4 calcium assay, CYSLTR1/HEK293 cells) [1] [nM] | IC50 (nM), in vitro CysLTR1 FLIPR antagonist test (Fluo-4 calcium assay, CYSLTR1/HEK293 cells) [2] [nM] | affinity to CysLTR1 relative to Compound A, derived from the FLIPR antagonist IC50s [3] [fold against Compound A] | IC50 (nM), in vitro CysLTR1 FLIPR antagonist test (Fluo-4 calcium assay, CYSLTR1/HEK293 cells), repeat [4] [nM]
Montelukast-Ala-Lys-Pro-Ser-Tyr-Hyp-Thr-Tyr-Hyp-Lys (montelukast covalently bonded at the N-terminus) (peptide) | 99.5 | – | – | –
B1 | – | 475 | – | –
B2 | – | 90.5 | 5 | 140
